From paper PMC314469, “Protein Interaction Networks by Proteome Peptide Scanning” (PLoS Biology, 2004)

T1: Boi1 SH3 (BOI1_YEAST), P38041
T1 chain: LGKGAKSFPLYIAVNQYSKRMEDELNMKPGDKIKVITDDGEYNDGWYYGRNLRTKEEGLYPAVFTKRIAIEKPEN

T2: Boi2 SH3 (BOI2_YEAST), P39969
T2 chain: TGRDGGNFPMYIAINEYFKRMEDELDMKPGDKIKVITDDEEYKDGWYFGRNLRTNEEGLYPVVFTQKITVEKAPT

T3: Rvs167 SH3 (RV167_YEAST), P39743
T3 chain: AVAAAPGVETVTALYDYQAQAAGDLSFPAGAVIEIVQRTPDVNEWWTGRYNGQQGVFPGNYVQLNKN

T4: Yfr024 SH3 (LSB3_YEAST), P43603
T4 chain: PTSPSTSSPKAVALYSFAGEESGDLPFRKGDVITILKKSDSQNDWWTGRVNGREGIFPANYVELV

T5: Yhr016c SH3 (YSC84_YEAST), P32793
T5 chain: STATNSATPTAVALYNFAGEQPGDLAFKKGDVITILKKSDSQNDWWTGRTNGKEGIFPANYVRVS


Assays:
Test in all cases: SPOT array
[1] = target: T1, Boi1 SH3 (BOI1_YEAST), P38041
[2] = target: T2, Boi2 SH3 (BOI2_YEAST), P39969
[3] = target: T3, Rvs167 SH3 (RV167_YEAST), P39743
[4] = target: T4, Yfr024 SH3 (LSB3_YEAST), P43603
[5] = target: T5, Yhr016c SH3 (YSC84_YEAST), P32793

Row | Binder | normalised SPOT signal, Boehringer light units (BLU); mean over the file's lines of this peptide [1] | normalised SPOT signal, Boehringer light units (BLU); mean over the file's lines of this peptide [2] | normalised SPOT signal, Boehringer light units (BLU); mean over the file's lines of this peptide [3] | normalised SPOT signal, Boehringer light units (BLU); mean over the file's lines of this peptide [4] | normalised SPOT signal, Boehringer light units (BLU); mean over the file's lines of this peptide [5]
1 | ELPPTHPIRLGLAL [YDR099W 164-177] | 77.1 | 46.1 | 24.8 | 179 | 203
2 | EVSPVEPKRTENER [YDR507C 687-700] | 80.7 | 41.7 | 47.2 | 72 | 83.5
3 | ERDPNAPKKPLTVF [YDR174W 100-113] | 75.6 | 34.6 | 59.7 | 94.1 | 274
4 | ETVPTEPTRYNYQN [YER132C 1359-1372] | 112 | 55.5 | 26.9 | 24.9 | 53.7
5 | ELDPISPLKVPLTA [YGR166W 276-289] | 56.8 | 46 | 39.4 | 42.4 | 160
6 | EMIPSSPQRKSVSN [YBR098W 51-64] | 59 | 37.3 | 220 | 2140 | 323
7 | ELEPQHPLRHKSSL [YER027C 53-66] | 65.2 | 60 | 38.4 | 109 | 333
8 | ENKPFKPPRRVGSN [YBR073W 41-54] | 339 | 3.6 | 232 | 23100 | 8330
9 | ELPPIKPPRPTSTT [YBL007C 619-632] | 54.9 | 90.2 | 1900 | 57000 | 43100
10 | ENFPIVPLKSVAQD [YAL051W 638-651] | 94 | 9.5 | 125 | 377 | 100
11 | ERDPNMPKRPTNAY [YDL002C 88-101] | 125 | 31.7 | 64.8 | 1640 | 339

The remaining lines, values ahead:

Row | normalised SPOT signal, Boehringer light units (BLU); mean over the file's lines of this peptide [1] | normalised SPOT signal, Boehringer light units (BLU); mean over the file's lines of this peptide [2] | normalised SPOT signal, Boehringer light units (BLU); mean over the file's lines of this peptide [3] | normalised SPOT signal, Boehringer light units (BLU); mean over the file's lines of this peptide [4] | normalised SPOT signal, Boehringer light units (BLU); mean over the file's lines of this peptide [5] | Binder
12 | 52.7 | 20.1 | 15.5 | 15 | 124 | EVTPEEPSKKIRTS [YML071C 500-513]
13 | 21.4 | 34.7 | 68 | 34.4 | 209 | ENAPANPSKALKVK [YHR108W 549-562]
14 | 160 | 34.9 | 35.7 | 56.9 | 86.3 | ENYPSPPYKIIILD [YJR068W 127-140]
15 | 90.2 | 13.5 | 15.1 | 13.7 | 149 | ELLPVVPEKFLIAS [YOR273C 415-428]
16 | 85 | 42.8 | 28.7 | 156 | 0 | ENLPPSPVRAVNPL [YPR174C 153-166]
17 | 5160 | 493 | 2090 | 59100 | 18500 | EVTPKVPERPSRRK [YIR003W 4-17]
18 | 455 | 26.1 | 34.8 | 2200 | 211 | ESLPRTPTKGRSTQ [YPR141C 2-15]
19 | 25.1 | 0 | 19.5 | 0 | 105 | EVTPEEPSKSIDNK [YML071C 475-488]
20 | 764 | 19.2 | 88.9 | 15000 | 4510 | ENVPLYPSRRNIWE [YHR176W 81-94]
21 | 69.3 | 69.2 | 67.1 | 12200 | 5560 | EKLPETPDRSKSAS [YLR343W 379-392]
22 | 51.2 | 26 | 34.7 | 923 | 138 | EVIPSWPRRGKVEE [YNL022C 436-449]
